Laboratory results published in patent US20240417436A1.
Bridges are numbered along the chain shown (N, C = ends). Primed or numbered codes have the meaning given here. [ ]: non-standard residue; d: D form. Yn3(5) = tyrosine residue modified with an azide-capped PEG9 group (O-(PEG9-azido)-tyrosine); Ygp(5) = O-(8x polyethylene glycol-amino)-tyrosine (Tyr-PEG8-amine); Ygp = O-(8x polyethylene glycol-amino)-tyrosine; Yn3 = O-(9x polyethylene glycol-azido)-tyrosine; PEG9′ = polyethylene glycol spacer of 9 units; 4x polyethylene glycol = not defined here; hSer = N[C@@H](CCO)C(=O)O; Nle = CCCC[C@H](N)C(=O)O

Assays:
[1] = target: IL-2 receptor βγ complex (CD122/CD132) on HEK-Blue IL-2Rβγ reporter cells (UniProt P14784); assay: cell-based or functional assay
[2] = target: IL-2 receptor βγ complex on human cells (pan T cells, PBMC NK cells, NK92 PD1+ cells) (human) (UniProt P14784); assay: cell-based or functional assay
Chain of IL-2 receptor βγ complex on human cells (pan T cells, PBMC NK cells, NK92 PD1+ cells) (human) (P14784 27-551, chain 1 of 2): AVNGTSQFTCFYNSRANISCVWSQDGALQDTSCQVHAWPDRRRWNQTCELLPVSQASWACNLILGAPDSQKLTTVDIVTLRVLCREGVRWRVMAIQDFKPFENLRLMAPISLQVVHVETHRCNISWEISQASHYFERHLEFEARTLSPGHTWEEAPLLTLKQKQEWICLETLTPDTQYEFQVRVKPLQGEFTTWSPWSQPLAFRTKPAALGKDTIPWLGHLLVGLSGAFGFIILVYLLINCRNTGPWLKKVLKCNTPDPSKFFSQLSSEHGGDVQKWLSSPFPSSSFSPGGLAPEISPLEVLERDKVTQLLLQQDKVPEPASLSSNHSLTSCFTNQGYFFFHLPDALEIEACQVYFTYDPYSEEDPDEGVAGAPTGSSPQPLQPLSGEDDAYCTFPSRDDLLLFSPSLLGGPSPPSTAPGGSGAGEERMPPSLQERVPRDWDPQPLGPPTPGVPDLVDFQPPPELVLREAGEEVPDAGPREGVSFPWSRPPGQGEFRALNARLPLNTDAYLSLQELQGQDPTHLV
Chain of IL-2 receptor βγ complex on human cells (pan T cells, PBMC NK cells, NK92 PD1+ cells) (human) (P31785 23-369, chain 2 of 2, further chain): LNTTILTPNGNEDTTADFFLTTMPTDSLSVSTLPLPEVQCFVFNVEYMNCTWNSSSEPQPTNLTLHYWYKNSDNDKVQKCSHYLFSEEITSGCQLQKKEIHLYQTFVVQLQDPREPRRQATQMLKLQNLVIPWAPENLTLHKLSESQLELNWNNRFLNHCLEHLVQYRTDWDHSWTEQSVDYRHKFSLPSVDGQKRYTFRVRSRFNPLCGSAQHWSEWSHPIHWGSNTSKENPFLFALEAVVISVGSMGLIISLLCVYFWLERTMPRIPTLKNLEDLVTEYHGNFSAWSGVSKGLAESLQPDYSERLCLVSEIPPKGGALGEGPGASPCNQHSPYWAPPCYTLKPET

Chain of IL-2 receptor βγ complex (CD122/CD132) on HEK-Blue IL-2Rβγ reporter cells (P14784 27-551 limits assumed, chain 1 of 2): as the sequence (P14784 27-551, chain 1 of 2) above
Chain of IL-2 receptor βγ complex (CD122/CD132) on HEK-Blue IL-2Rβγ reporter cells (P31785 23-369 limits assumed, chain 2 of 2, further chain): as the sequence (P31785 23-369, chain 2 of 2, further chain) above

Average EC50, HEK-Blue IL-2R (CD122+, CD132+) reporter assay [1]	Average EC50, pSTAT5 assay in NK cells [2]	Binder
0.521 nM		CMP-303 (ligand, linker (positions not given here) via 4x polyethylene glycol; not fully specified (bridges); reading uncertain; also: ring may run through the N-terminus of residue 1, not given here) PLGLAGAPTSSSTKKTQLQLEHLLLDLQEILNGINNYKNPKLTR[Nle]L[hSer][Yn3]KF[Ygp][Nle]PKKATELKHLQCLEEELKPLEEVL[hSer]LAQSKNFHLRPRDLISNINVIVLELKGSETTF[hSer]CEYADETATIVEFLNRWITFSQSIISTLT
0.181 nM	2.94 nM	CMP-321, MMP2 cleaved molecule (ligand, lactam N-32; also: treated with MMP2 (cleavage site not given here)) SGRVQPLVDAPTSSSTKKTQLQLEHLLLDLQEILNGINNYKNPKLTR[Nle]L[hSer][Yn3(5)]KF[Ygp(5)][Nle]PKKATELKHLQCLEEELKPLEEVL[hSer]LAQSKNFHLRPRDLISNINVIVLELKGSETTF[hSer]CEYADETATIVEFLNRWITFSQSIISTLT
0.049 nM	0.713 nM	CMP-319, MMP2 cleaved molecule (ligand, lactam N-33; also: treated with MMP2 (cleavage site not given here)) RGRRVANLVGAPTSSSTKKTQLQLEHLLLDLQEILNGINNYKNPKLTR[Nle]L[hSer][Yn3(5)]KF[Ygp(5)][Nle]PKKATELKHLQCLEEELKPLEEVL[hSer]LAQSKNFHLRPRDLISNINVIVLELKGSETTF[hSer]CEYADETATIVEFLNRWITFSQSIISTLT
0.775 nM	13.2 nM	CMP-320 (ligand, lactam N-34) SGRVAPQPLVDAPTSSSTKKTQLQLEHLLLDLQEILNGINNYKNPKLTR[Nle]L[hSer][Yn3(5)]KF[Ygp(5)][Nle]PKKATELKHLQCLEEELKPLEEVL[hSer]LAQSKNFHLRPRDLISNINVIVLELKGSETTF[hSer]CEYADETATIVEFLNRWITFSQSIISTLT
0.168 nM		CMP-161 (ligand, bridge N-32; not fully specified (bridges)) PLGLAGAPTSSSTKKTQLQLEHLLLDLQ[Nle]ILEGINNYKNPKLTR[Nle]L[hSer][Yn3]KF[Ygp][Nle]PKKATELKHLQCLEEELKPLEEVL[hSer]LAQSKNFHLRPRDLISNINVIVLELKGSETTF[hSer]CEYADETATIVEFLNRWITFSQSIISTLT
0.0507 nM	0.804 nM	CMP-319, Matriptase cleaved molecule (ligand, lactam N-33; also: treated with matriptase (cleavage site not given here)) RGRRVANLVGAPTSSSTKKTQLQLEHLLLDLQEILNGINNYKNPKLTR[Nle]L[hSer][Yn3(5)]KF[Ygp(5)][Nle]PKKATELKHLQCLEEELKPLEEVL[hSer]LAQSKNFHLRPRDLISNINVIVLELKGSETTF[hSer]CEYADETATIVEFLNRWITFSQSIISTLT
3.37 nM	37.4 nM	CMP-318 (ligand, lactam N-32) SGRVANLVGAPTSSSTKKTQLQLEHLLLDLQEILNGINNYKNPKLTR[Nle]L[hSer][Yn3]KF[Ygp][Nle]PKKATELKHLQCLEEELKPLEEVL[hSer]LAQSKNFHLRPRDLISNINVIVLELKGSETTF[hSer]CEYADETATIVEFLNRWITFSQSIISTLT
0.0259 nM	0.388 nM	CMP-318, MMP2 cleaved molecule (ligand, not fully specified (bridges)) SGRVANLVGAPTSSSTKKTQLQLEHLLLDLQEILNGINNYKNPKLTR[Nle]L[hSer][Yn3]KF[Ygp][Nle]PKKATELKHLQCLEEELKPLEEVL[hSer]LAQSKNFHLRPRDLISNINVIVLELKGSETTF[hSer]CEYADETATIVEFLNRWITFSQSIISTLT
1.05 nM	7.72 nM	CMP-319 (ligand, lactam N-33) RGRRVANLVGAPTSSSTKKTQLQLEHLLLDLQEILNGINNYKNPKLTR[Nle]L[hSer][Yn3(5)]KF[Ygp(5)][Nle]PKKATELKHLQCLEEELKPLEEVL[hSer]LAQSKNFHLRPRDLISNINVIVLELKGSETTF[hSer]CEYADETATIVEFLNRWITFSQSIISTLT
0.0597 nM		CMP-152 (ligand, linker N-38 via 1,5‑pentanedioic acid‑9x polyethylene glycol linker) PLGLAGAPTSSSTKKTQLQLEHLLLDLQ[Nle]ILNGINNYKNPKLTR[Nle]L[hSer][Yn3]KF[Ygp][Nle]PKKATELKHLQCLEEELKPLEEVL[hSer]LAQSKNFHLRPRDLISNINVIVLELKGSETTF[hSer]CEYADETATIVEFLNRWITFSQSIISTLT
0.436 nM		CMP-302 (ligand, lactam N-30) GPLGLAGAPTSSSTKKTQLQLEHLLLDLQEILNGINNYKNPKLTR[Nle]L[hSer][Yn3]KF[Ygp][Nle]PKKATELKHLQCLEEELKPLEEVL[hSer]LAQSKNFHLRPRDLISNINVIVLELKGSETTF[hSer]CEYADETATIVEFLNRWITFSQSIISTLT
0.192 nM		CMP-159 (ligand, linker N-28 via 4x polyethylene glycol; reading uncertain) PLGLAGAPTSSSTKKTQLQLEHLLLDLE[Nle]ILNGINNYKNPKLTR[Nle]L[hSer][Yn3]KF[Ygp][Nle]PKKATELKHLQCLEEELKPLEEVL[hSer]LAQSKNFHLRPRDLISNINVIVLELKGSETTF[hSer]CEYADETATIVEFLNRWITFSQSIISTLT
0.106 nM		CMP-154 (ligand, linker N-35 via 9x polyethylene glycol) PLGLAGAPTSSSTKKTQLQLEHLLLDLQ[Nle]ILNGIENYKNPKLTR[Nle]L[hSer][Yn3]KF[Ygp][Nle]PKKATELKHLQCLEEELKPLEEVL[hSer]LAQSKNFHLRPRDLISNINVIVLELKGSETTF[hSer]CEYADETATIVEFLNRWITFSQSIISTLT
4.22 nM	65.2 nM	CMP-321, Matriptase cleaved molecule (ligand, lactam N-32; also: treated with matriptase (cleavage site not given here)) SGRVQPLVDAPTSSSTKKTQLQLEHLLLDLQEILNGINNYKNPKLTR[Nle]L[hSer][Yn3(5)]KF[Ygp(5)][Nle]PKKATELKHLQCLEEELKPLEEVL[hSer]LAQSKNFHLRPRDLISNINVIVLELKGSETTF[hSer]CEYADETATIVEFLNRWITFSQSIISTLT
2.47 nM	33.7 nM	CMP-318, Matriptase cleaved molecule (ligand, lactam N-32; also: treated with matriptase, cleavage site not given here) SGRVANLVGAPTSSSTKKTQLQLEHLLLDLQEILNGINNYKNPKLTR[Nle]L[hSer][Yn3(5)]KF[Ygp(5)][Nle]PKKATELKHLQCLEEELKPLEEVL[hSer]LAQSKNFHLRPRDLISNINVIVLELKGSETTF[hSer]CEYADETATIVEFLNRWITFSQSIISTLT
4.2 nM	55.1 nM	CMP-321 (ligand, lactam N-32) SGRVQPLVDAPTSSSTKKTQLQLEHLLLDLQEILNGINNYKNPKLTR[Nle]L[hSer][Yn3(5)]KF[Ygp(5)][Nle]PKKATELKHLQCLEEELKPLEEVL[hSer]LAQSKNFHLRPRDLISNINVIVLELKGSETTF[hSer]CEYADETATIVEFLNRWITFSQSIISTLT
0.0392 nM	0.571 nM	CMP-320, MMP2 cleaved molecule (ligand, lactam N-34; also: treated with MMP2 (cleavage site not given here)) SGRVAPQPLVDAPTSSSTKKTQLQLEHLLLDLQEILNGINNYKNPKLTR[Nle]L[hSer][Yn3(5)]KF[Ygp(5)][Nle]PKKATELKHLQCLEEELKPLEEVL[hSer]LAQSKNFHLRPRDLISNINVIVLELKGSETTF[hSer]CEYADETATIVEFLNRWITFSQSIISTLT
0.34 nM		CMP-304 (ligand, bridge N-29 via PEG9′) PLGLAGAPTSSSTKKTQLQLEHLLLDLQEILNGINNYKNPKLTR[Nle]L[hSer][Yn3]KF[Ygp][Nle]PKKATELKHLQCLEEELKPLEEVL[hSer]LAQSKNFHLRPRDLISNINVIVLELKGSETTF[hSer]CEYADETATIVEFLNRWITFSQSIISTLT
10.8 nM	15.7 nM	CMP-320, Matriptase cleaved molecule (ligand, lactam N-34; also: treated with matriptase (cleavage site not given here)) SGRVAPQPLVDAPTSSSTKKTQLQLEHLLLDLQEILNGINNYKNPKLTR[Nle]L[hSer][Yn3(5)]KF[Ygp(5)][Nle]PKKATELKHLQCLEEELKPLEEVL[hSer]LAQSKNFHLRPRDLISNINVIVLELKGSETTF[hSer]CEYADETATIVEFLNRWITFSQSIISTLT
